According to patent publication US20040014036:

Assays:
[1] = test system: Gal4(1-100)-LS201 (Saccharomyces cerevisiae); assay: cell_activity; conditions: yeast JPY9:RJR227 lacZ reporter; activation dependent on Gal4 sites (p75)
[2] = test system: Gal4 full length (Saccharomyces cerevisiae); assay: cell_activity; conditions: yeast lacZ reporter, 5x17mer; activation dependent on Gal4 sites stated for the peptide activators

GAL4 consensus 17mer sites (five, reporter pRJR227)
activity (beta-gal units) [1]: 5290 | activity (beta-gal units) [2]: 2350
